Experimental data: patent publication US20180009908
Substitutions are numbered along the chain they refer to. Names may count otherwise.

Columns and labels:
[1] = biological target: T1, HA-tagged human IgG1 Fc portion with CH3 mutations E357D, S364R, Y407A; assay: UPLC SEC of protein G-purified one-arm antibody co-expressed in HEK293F
T1 chain: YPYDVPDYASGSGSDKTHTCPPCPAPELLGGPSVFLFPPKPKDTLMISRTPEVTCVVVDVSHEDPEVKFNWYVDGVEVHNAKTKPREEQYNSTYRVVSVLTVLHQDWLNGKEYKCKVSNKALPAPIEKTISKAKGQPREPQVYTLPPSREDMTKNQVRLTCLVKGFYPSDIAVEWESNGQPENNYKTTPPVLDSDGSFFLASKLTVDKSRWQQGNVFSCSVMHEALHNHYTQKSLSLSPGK

[2] = biological target: T2, HA-tagged human IgG1 Fc portion with CH3 mutations E357D, S364Q, Y407A; assay: as above
T2 chain: T1 chain with R158Q

[3] = biological target: T3, HA-tagged human IgG1 Fc portion with CH3 mutations E356G, E357D, S364Q, Y407A; assay: as above
T3 chain: T1 chain with E150G, R158Q

[4] = biological target: T4, HA-tagged human IgG1 Fc portion with CH3 mutations E345R, Q347R, T366V, K409V; assay: as above
T4 chain: T1 chain with E139R, Q141R, D151E, R158S, T160V, A201Y, K203V

[5] = LCMS, IgG1 BsAb co-expression; HCA homodimer species
[6] = biological target: matuzumab HC_20.8_B + matuzumab LC (IgG1); assay: LCMS, IgG1 BsAb co-expression; HCA/HCB heterodimer carrying two LC2
[7] = biological target: BHA10 HC_20.8_B + BHA10 LC (IgG1); assay: as above
[8] = biological target: matuzumab HC_20.8_B + matuzumab LC (IgG1); assay: LCMS, IgG1 BsAb co-expression in HEK293F
[9] = biological target: BHA10 HC_20.8_B + BHA10 LC (IgG1); assay: LCMS, IgG1 BsAb co-expression in HEK293F
[10] = biological target: matuzumab HC_20.8_B + matuzumab LC (IgG1); assay: LCMS, IgG1 BsAb co-expression; HCA/HCB heterodimer carrying two LC1
[11] = biological target: BHA10 HC_20.8_B + BHA10 LC (IgG1); assay: as above
[12] = biological target: BHA10 HC_7.8.60_B + BHA10 LC (IgG4 HC backbone); assay: LCMS, IgG4 BsAb co-expression in HEK293F
[13] = biological target: matuzumab HC_7.8.60_B + matuzumab LC (IgG4 HC backbone); assay: LCMS, IgG4 BsAb co-expression in HEK293F
[14] = biological target: BHA10 HC_7.8.60_B + BHA10 LC (IgG4 HC backbone); assay: LCMS, IgG4 BsAb co-expression; HCA/HCB heterodimer carrying two LC1
[15] = biological target: matuzumab HC_7.8.60_B + matuzumab LC (IgG4 HC backbone); assay: as above
[16] = LCMS, IgG4 BsAb co-expression; HCA homodimer species
[17] = biological target: BHA10 HC_7.8.60_B + BHA10 LC (IgG4 HC backbone); assay: LCMS, IgG4 BsAb co-expression; HCA/HCB heterodimer carrying two LC2
[18] = biological target: matuzumab HC_7.8.60_B + matuzumab LC (IgG4 HC backbone); assay: as above
[19] = biological target: matuzumab HC_20.8.34_B + matuzumab LC (IgG4 HC backbone); assay: LCMS, IgG4 BsAb co-expression in HEK293F
[20] = biological target: BHA10 HC_20.8.34_B + BHA10 LC (IgG4 HC backbone); assay: LCMS, IgG4 BsAb co-expression in HEK293F
[21] = biological target: matuzumab HC_20.8.34_B + matuzumab LC (IgG4 HC backbone); assay: LCMS, IgG4 BsAb co-expression; HCA/HCB heterodimer carrying two LC1
[22] = biological target: BHA10 HC_20.8.34_B + BHA10 LC (IgG4 HC backbone); assay: as above
[23] = biological target: matuzumab HC_20.8.34_B + matuzumab LC (IgG4 HC backbone); assay: LCMS, IgG4 BsAb co-expression; HCA/HCB heterodimer carrying two LC2
[24] = biological target: BHA10 HC_20.8.34_B + BHA10 LC (IgG4 HC backbone); assay: as above
[25] = Pertuzumab × BHA10 IgG BsAbs (with select CH3 Designs)
[26] = Pertuzumab × Matuzumab IgG BsAbs (with select CH3 Designs)

B1: anti-c-Met 5D5 VH-human IgG1 HC with CH3 mutations Y349S, K370Y, T366V, K409V, with 5D5 light chain (protein)
chain 1: EVQLVESGGGLVQPGGSLRLSCAASGYTFTSYWLHWVRQAPGKGLEWVGMIDPSNSDTRFNPNFKDRFTISADTSKNTAYLQMNSLRAEDTAVYYCATYRSYVTPLDYWGQGTLVTVSSASTKGPSVFPLAPSSKSTSGGTAALGCLVKDYFPEPVTVSWNSGALTSGVHTFPAVLQSSGLYSLSSVVTVPSSSLGTQTYICNVNHKPSNTKVDKRVEPKSCDKTHTCPPCPAPELLGGPSVFLFPPKPKDTLMISRTPEVTCVVVDVSHEDPEVKFNWYVDGVEVHNAKTKPREEQYNSTYRVVSVLTVLHQDWLNGKEYKCKVSNKALPAPIEKTISKAKGQPREPQVSTLPPSREEMTKNQVSLVCLVYGFYPSDIAVEWESNGQPENNYKTTPPVLDSDGSFFLYSVLTVDKSRWQQGNVFSCSVMHEALHNHYTQKSLSLSPGK
chain 2: DIQMTQSPSSLSASVGDRVTITCKSSQSLLYTSSQKNYLAWYQQKPGKAPKLLIYWASTRESGVPSRFSGSGSGTDFTLTISSLQPEDFATYYCQQYYAYPWTFGQGTKVEIKRTVAAPSVFIFPPSDEQLKSGTASVVCLLNNFYPREAKVQWKVDNALQSGNSQESVTEQDSKDSTYSLSSTLTLSKADYEKHKVYACEVTHQGLSSPVTKSFNRGEC
% heterodimer (UPLC) [1]: 86.5%
% heterodimer (UPLC) [2]: 84.9%
% heterodimer (UPLC) [3]: 93%

B2: anti-c-Met 5D5 VH-human IgG1 HC with CH3 mutations Y349S, K370Y, T366M, K409V, with 5D5 light chain (protein)
chain 1: B1 chain 1 with V368M
chain 2: B1 chain 2
% heterodimer (UPLC) [1]: 83.5%
% heterodimer (UPLC) [2]: 86%
% heterodimer (UPLC) [3]: 83.8%

B3: anti-c-Met 5D5 VH-human IgG1 HC with CH3 mutations K360D, D399M, Y407A, with 5D5 light chain (protein)
chain 1: B1 chain 1 with S351Y, K362D, V368T, Y372K, D401M, Y409A, V411K
chain 2: B1 chain 2
% heterodimer (UPLC) [4]: 93%

B4: pertuzumab HC_20.8_A + pertuzumab LC (IgG1) (protein)
chain 1: EVQLVESGGGLVQPGGSLRLSCAASGFTFTDYTMDWVRKAPGKGLEWVADVNPNSGGSIYNQEFKGRFTLSVDRSKNTLYLQMNSLRAEDTAVYYCARNLGPSFYFDYWGQGTLVTVSSASTKGPSVFPLAPSSKSTSGGTAALGCLVKDYFPEPVTVSWNSGALTSGVATGPAVLQSSGLYSLSSVVTVPSSSLGTQTYICNVNHKPSNTKVDKKVEPKSCDKTHTCPPCPAPELLGGPSVFLFPPKPKDTLMISRTPEVTCVVVDVSHEDPEVKFNWYVDGVEVHNAKTKPREEQYQSTYRVVSVLTVLHQDWLNGKEYKCKVSNKALPAPIEKTISKAKGQPREPQVSTLPPSREEMTKNQVSLVCLVYGFYPSDIAVEWESNGQPENNYKTTPPVLDSDGSFFLYSVLTVDKSRWQQGNVFSCSVMHEALHNHYTQKSLSLSPGK
chain 2: RIQMTQSPSSLSASVGDRVTITCKASQDVSIGVAWYQDKPGKAPKLLIYSASYRYTGVPSRFSGSGSGTDFTLTISSLQPEDFATYYCQQYYIYPYTFGQGTKVEIKGQPKAAPSVTLFPPSSEELQANKATLVCYISDFYPGAVTVAWKADSSPVKAGVETTTPSKQSNNKYAAWSYLSLTPEQWKSHRSYSCQVTHEGSTVEKTVAPTEC
% AA Homodimer (incorrect assembly) ([5]; pertuzumab × BHA10 bispecific): 3.5%
% AA Homodimer (incorrect assembly) ([5]; pertuzumab × matuzumab bispecific): 2.1%
% AB (2x LC2) (incorrect assembly) [6]: 0%
% AB (2x LC2) (incorrect assembly) [7]: 0%
% AB (LC1/LC2) (correct IgG BsAb assembly) [8]: 96%
% AB (LC1/LC2) (correct IgG BsAb assembly) [9]: 96.5%
% AB (2x LC1) (incorrect assembly) [10]: 0%
% AB (2x LC1) (incorrect assembly) [11]: 0%

B5: pertuzumab HC_7.8.60_A + pertuzumab LC (IgG4 HC backbone) (protein)
chain 1: EVQLVESGGGLVQPGGSLRLSCAASGFTFTDYTMDWVRKAPGKGLEWVADVNPNSGGSIYNQEFKGRFTLSVDRSKNTLYLQMNSLRAEDTAVYYCARNLGPSFYFDYWGQGTLVTVSSASTKGPSVFPLAPCSRSTSESTAALGCLVKDYFPEPVTVSWNSGALTSGVATGPAVLQSSGLYSLSSVVTVPSSSLGTKTYTCNVDHKPSNTKVDKRVESKYGPPCPPCPAPEAAGGPSVFLFPPKPKDTLMISRTPEVTCVVVDVSQEDPEVQFNWYVDGVEVHNAKTKPREEQFQSTYRVVSVLTVLHQDWLNGKEYKCKVSNKGLPSSIEKTISKAKGQPREPQVYTLPPSQEEMTDNQVSLTCLVKGFYPSDIAVEWESNGQPENNYKTTPPVLMSDGSFFLASRLTVDKSRWQEGNVFSCSVMHEALHNHYTQKSLSLSLG
chain 2: B4 chain 2
% AB (LC1/LC2) (correct IgG BsAb assembly) [12]: 95.8%
% AB (LC1/LC2) (correct IgG BsAb assembly) [13]: 90.9%
% AB (2x LC1) (incorrect assembly) [14]: 0%
% AB (2x LC1) (incorrect assembly) [15]: 0%
% AA Homodimer (incorrect assembly) [16, 25]: 0%
% AA Homodimer (incorrect assembly) [16, 26]: 9.1%
% AB (2x LC2) (incorrect assembly) [17]: 0%
% AB (2x LC2) (incorrect assembly) [18]: 0%

B6: pertuzumab HC_20.8.34_A + pertuzumab LC (IgG4 HC backbone) (protein)
chain 1: B5 chain 1 with Y348S, D359K, T365M, K369Y, M398D, A406Y, R408V
chain 2: B4 chain 2
% AB (LC1/LC2) (correct IgG BsAb assembly) [19]: 94.1%
% AB (LC1/LC2) (correct IgG BsAb assembly) [20]: 94.8%
% AB (2x LC1) (incorrect assembly) [21]: 0%
% AB (2x LC1) (incorrect assembly) [22]: 0%
% AA Homodimer (incorrect assembly) [16, 25]: 5.2%
% AA Homodimer (incorrect assembly) [16, 26]: 2.3%
% AB (2x LC2) (incorrect assembly) [23]: 0%
% AB (2x LC2) (incorrect assembly) [24]: 0%
